Results reported in patent US20250082771A1, “DOSAGE REGIMEN OF AN ANTI-CDH6 ANTIBODY-DRUG CONJUGATE” (DAIICHI SANKYO COMPANY, LIMITED, priority 2022, published 2025).

What was measured:
Type in all cases: in vivo, human
CA-125 [1] = test: Phase 1 dose escalation part: CA-125 response (GCIG criteria)
From the text: (§1) Secondary objectives included characterizing the pharmacokinetic (PK) properties of DS-6000a, total anti-CDH6 antibody, drug component and assessing the immunogenicity. Exploratory objectives included evaluating biomarker that correlate with efficacy and disease assessment in OVC using Gynecologic Cancer Intergroup (GCIG) criteria.

RCC and OVC subjects [2] = test: Phase 1 dose escalation and expansion parts as of new cut-off date: safety and tolerability
Experimental: (§2) The dose expansion part of the Phase 1 study was a multicenter, open-label, multiple-dose, first-in-human study of DS-6000a, which enrolled subjects in the United States (see clinicaltrials.gov identifier NCT 04707248). DS-6000a was administered intravenously every 3 weeks. The dose expansion part included administering to RCC and OVC subjects at RDEs. Initially, dose of 8.0 mg/kg was expanded, subsequently, the 6.4, 5.6 and 4.8 mg/kg doses were added as RDEs (FIG. 12).
The primary objective of the dose expansion part was to evaluate the safety, tolerability, and efficacy at the RDEs.
Patient assessments included echocardiogram or multigated acquisition scan, 12-lead electrocardiogram, AEs, PK, human anti-human antibodies, biomarkers, and tumor assessments at prespecified visits.
(§3) Objective response rate (ORR), clinical benefit rate (CBR), and disease control rate (DCR) were summarized with 95% confidence intervals (CI) using the Clopper-Pearson method; duration of response (DOR) and progression-free survival (PFS) were summarized using the Kaplan-Meier method. Safety endpoints, PK parameters and plasma anti-drug antibodies were summarized using descriptive statistics.
(§4) After the initial data-cut, additional patients were enrolled in Phase 1 (both escalation and expansion), bringing the overall number of participants to sixty-seven (N=67). The demographic and baseline characteristics of the patient enrolled in dose escalation and expansion parts of the Phase 1 study as of new cut-off date are shown in FIG. 13. Subjects ranged in age from 34 to 83 years with a median age of 63 years. A median of 4 prior lines of therapy was administered. The prior lines of therapy comprise a platinum-based chemotherapeutic, a chemotherapeutic, a PARP inhibitor, an immune checkpoint inhibitor, an angiogenic inhibitor and a VEGFR-TKI. The subjects were 25.4% RCC, 74.6% OVC and 64.2% had Eastern Cooperative Oncology Group performance status (ECOG PS) of 1.
Subjects had received DS-6000a as monotherapy with a median treatment duration of 15.4 weeks (range 3.0 to 93.9 weeks). The number of patients in the dose escalation and expansion parts of the Phase 1 study as of new cut-off date with TEAE, which occurred in […] of patients, regardless of causality, is shown in FIG. 14.

OVC subjects = test: Phase 1 dose escalation and expansion parts as of new cut-off date: tumor response, ORR and PFS
Experimental: as §2, §3, §4
One confirmed CR and 14 confirmed PR were observed among 44 evaluable OVC subjects at doses ranging from 1.6 to 9.6 mg/kg. SD was reported for 24 subjects (FIG. 17).

CA-125 [3] = test: Phase 1 dose escalation and expansion parts as of new cut-off date: CA-125 response
From the text: as §1

RCC and OVC subjects [4] = test: Phase 1 dose escalation part: safety and tolerability (TEAEs, DLT, RDE)
Experimental: (§5) The dose escalation part of the Phase 1 study was a multicenter, open-label, multiple-dose, first-in-human study of DS-6000a, which enrolled subjects in the United States (see clinicaltrials.gov identifier NCT 04707248). DS-6000a was administered intravenously every 3 weeks. In the dose escalation part, RCC and OVC subjects were enrolled and dose-limiting toxicity (DLT) was assessed during Cycle 1.
The primary objective of the dose escalation part was to investigate the safety and tolerability and determine the maximum-tolerated dose (MTD) and/or recommended dose for expansion (RDE).
(§6) Patient assessments included echocardiogram or multigated acquisition scan, 12-lead electrocardiogram, AEs, PK, human anti-human antibodies, biomarkers, and tumor assessments at prespecified visits. The demographic and baseline characteristics of the patient enrolled in this dose escalation part of the Phase 1 study are shown in FIG. 2.
(§7) For this dose escalation part of the Phase 1 study, Bayesian optimal interval (BOIN) design was used to estimate the MTD. Accelerated titration, treat a single subject at a dose level, was performed until any DLT or ≥Grade 2 AE possibly related to DS-6000a (excluding infusion-related reactions) is observed during Cycle 1. Objective response rate (ORR), clinical benefit rate (CBR), and disease control rate (DCR) were summarized with 95% confidence intervals (CI) using the Clopper-Pearson method; duration of response (DOR) and progression-free survival (PFS) were summarized using the Kaplan-Meier method. Safety endpoints, PK parameters and plasma anti-drug antibodies were summarized using descriptive statistics.

RCC and OVC subjects [5] = test: Phase 1 dose escalation part: tumor response per RECIST V1.1
Experimental: as §5, §6, §7

[6] = dose escalation and expansion parts, new cut-off date, N=67
[7] = among 44 evaluable OVC subjects, 1.6 to 9.6 mg/kg, new cut-off date
[8] = dose escalation part, among 24 efficacy evaluable patients

## DS-6000a: anti-CDH6 antibody (SEQ ID NO: 69 positions 20-471; SEQ ID NO: 61 positions 21-233) bound via thioether bond to drug linker; DAR 7 to 8
CA-125 [1]; FIG. 8
  durability of CA-125 responses: durable
CA-125 [1]; among 17 efficacy evaluable OVC patients, at least 50% reduction in CA-125 from baseline, confirmed and maintained at least 28 days
  patients showed CA-125 responder: 8 patients
CA-125 [1]; dose level of 4.8 to 9.6 mg/kg
  CA-125 response rates by dose level: Higher CA-125 response rates
RCC and OVC subjects [2]; 8.0 mg/kg
  fatal cases: 3
RCC and OVC subjects [2]; 8.0 mg/kg, frequent dose reduction/interruption compared to lower doses
  tolerability: not tolerated
RCC and OVC subjects [2]; dose escalation and expansion parts, new cut-off date
  doses at which well tolerated: up to 6.4 mg/kg
RCC and OVC subjects [2]; [6]
  most frequently reported Grade 23 events: hematological events
  severity of the majority of the gastrointestinal events: Grade 1 or 2
RCC and OVC subjects [2]; dose escalation and expansion parts, new cut-off date, N=67, monotherapy
  most frequently reported TEAEs: gastrointestinal events (nausea, vomiting and diarrhea), fatigue, decreased appetite and hematological events (anaemia, neutrophil count decreased and platelet count decreased)
OVC subjects; 4.8 and 6.4 mg/kg compared to 8.0 mg/kg, small sample size
  preliminary efficacy signals by dose: better preliminary efficacy signals
OVC subjects; OVC subjects, 3.2 mg/kg
  median PFS: 13.9 months
OVC subjects; OVC subjects, 4.8 mg/kg
  median PFS: 7.9 months
OVC subjects; OVC subjects, 6.4 mg/kg
  median PFS: 5.8 months
OVC subjects; OVC subjects, 8.0 mg/kg
  median PFS: 5.6 months
OVC subjects; OVC subjects, doses ranging from 1.6 to 9.6 mg/kg
  median PFS: 5.8 months
OVC subjects; OVC subjects, higher dosing group, FIG. 16
  dose-effect on efficacy: consistent and pronounced reduction in tumor size
OVC subjects; OVC subjects, new cut-off date
  ORR compared to current standard of care (single-agent chemotherapies) in platinum resistant ovarian cancer: Higher ORR
  PFS compared to current standard of care (single-agent chemotherapies) in platinum resistant ovarian cancer: Longer PFS
OVC subjects; among 41 evaluable OVC subjects with measurable disease at baseline, 1.6 to 9.6 mg/kg
  ORR: 36.6%
OVC subjects; [7]
  confirmed CR: One
  confirmed PR: 14
CA-125 [3]; OVC patients
  CA-125 response rates among dose levels: High CA-125 response rates
CA-125 [3]; OVC subjects, FIG. 18
  CA-125 reductions: deep and durable
CA-125 [3]; among 28 efficacy evaluable OVC patients, at least 50% reduction in CA-125 from baseline, confirmed and maintained at least 28 days
  patients showed CA-125 responder: 15 patients
RCC and OVC subjects [4]; 1.6 mg/kg
  patients discontinued due to PD per RECIST V1.1: 1 patients
RCC and OVC subjects [4]; 3.2 mg/kg
  patients discontinued due to clinical progression: 1 patients
  patients discontinued due to death: One
  patients required dose interruption: 1 patients
RCC and OVC subjects [4]; 4.8 mg/kg
  patients discontinued due to clinical progression: 1 patients
  patients required dose interruption: 2 patients
RCC and OVC subjects [4]; 6.4 mg/kg
  patients discontinued due to PD per RECIST V1.1: 2 patients
  patients discontinued due to clinical progression: 1 patients
  patients required dose interruption: 3 patients
RCC and OVC subjects [4]; 8.0 mg/kg
  patients discontinued due to PD per RECIST V1.1: 2 patients
  patients discontinued due to clinical progression: 1 patients
  patients required dose interruption: 1 patients
  patients required dose reduction: 1 patients
RCC and OVC subjects [4]; 9.6 mg/kg
  patients discontinued due to adverse event: One
  patients required dose interruption: 2 patients
  patients required dose reduction: 2 patients
RCC and OVC subjects [4]; 9.6 mg/kg, Cycle 1, Gr3 febrile neutropenia and Gr4 platelet count decreased
  DLTs: Two
RCC and OVC subjects [4]; Grade 3 anaemia and Grade 3 febrile neutropenia at 9.6 mg/kg
  serious TEAEs considered drug-related: Two
RCC and OVC subjects [4]; IV every 3 weeks
  RDE (recommended dose for expansion): 8.0 mg/kg
RCC and OVC subjects [4]; N=30
  grade of serious TEAEs: all events are Grade 3
RCC and OVC subjects [4]; N=30 (4/30)
  patients with serious TEAEs: 13.3%
RCC and OVC subjects [4]; N=30 (7/30), drug-related
  patients reported Grade 23 related TEAE: 23.3%
RCC and OVC subjects [4]; N=30 (10/30), regardless of causality
  patients reported Grade 23 TEAE: 33.3%
RCC and OVC subjects [4]; N=30 (13 patients)
  patients discontinued from treatment: 43.3%
RCC and OVC subjects [4]; N=30 (25 patients)
  patients with drug-related TEAEs: 83.3%
RCC and OVC subjects [4]; N=30 (26/30), regardless of causality, IV every 3 weeks
  patients reported 21 TEAE: 86.7%
RCC and OVC subjects [4]; N=30, all dose levels
  patients discontinued due to PD per RECIST V1.1: 5 patients
  patients discontinued due to clinical progression: Four
  patients required dose interruption: Nine
  patients required dose reduction: three
RCC and OVC subjects [4]; N=30, drug-related
  Grade 23 related TEAE neutrophil count decreased: 16.7%
  related TEAE decreased appetite: 20.0%
  related TEAE fatigue: 56.7%
  related TEAE nausea: 60.0%
  related TEAE neutrophil count decreased: 23.3%
  related TEAE vomiting: 30.0%
RCC and OVC subjects [4]; N=30, regardless of causality
  Grade 23 TEAE anaemia: 10.0%
  Grade 23 TEAE hypokalemia: 10.0%
  Grade 23 TEAE neutrophil count decreased: 16.7%
  TEAE decreased appetite: 40.0%
  TEAE diarrhoea: 20.0%
  TEAE fatigue: 63.3%
  TEAE nausea: 60.0%
  TEAE neutrophil count decreased: 23.3%
  TEAE vomiting: 46.7%
RCC and OVC subjects [4]; as of data cut off
  tolerability: generally well tolerated
RCC and OVC subjects [5]; dose escalation part, 8.0 mg/kg
  time stayed in treatment, one patient with SD: more than 180 days
RCC and OVC subjects [5]; dose escalation part, 3.2, 4.8, 6.4, 8.0 and 9.6 mg/kg dose levels
  tumor shrinkage in target lesion: Tumor shrinkages were observed
RCC and OVC subjects [5]; dose escalation part, FIG. 6
  durability of tumor responses: durable
RCC and OVC subjects [5]; dose escalation part, RCC, among 24 efficacy evaluable patients
  PRs based on RECIST V1.1: one
RCC and OVC subjects [5]; dose escalation part, a patient in the 9.6 mg/kg dosing group
  best percent change in sum of longest dimensions from baseline (tumor reduction): 68.8%
RCC and OVC subjects [5]; [8]
  Non-CR/Non-PDs: 2
  PRs (including single point PRs, not yet confirmed responses) based on RECIST V1.1: 6
  stable diseases (SDs): 12
RCC and OVC subjects [5]; dose escalation part, platinum-resistant OVC, among 24 efficacy evaluable patients
  PRs based on RECIST V1.1: five
RCC and OVC subjects [5]; one clear cell RCC patient, 3 prior therapies including ICI and VEGFR-TKI, 3.2 mg/kg, 51.4 weeks following initiation of treatment
  maximum decrease in tumor size: 64.3%
RCC and OVC subjects [5]; one platinum-resistant OVC patient, 3 prior therapies including bevacizumab and PARP inhibitor, 6.4 mg/kg, 40.4 weeks following initiation of treatment
  maximum decrease in tumor size: 35.7%
